Source: patent US20040053332A1

Biological target: ER-DEVD-Luc (mouse; firefly)
Experiment: cell-based or functional assay

cleavage of the 90 kDa fusion to a 60 kDa polypeptide (western blot, 293T cells treated with staurosporine): 50%
Substance: caspase-3 (from UniProt P42574 29-277)
